In the DeepSol protein solubility set:

Assay: soluble on expression in E. coli; label from the status in PepcDB or PDB records

Row | Sequence | soluble on expression in E. coli
1 | MGSDKIHHHHHHMTIEMKNNKNNNCNFPTLRFPEFSGEWKKDIIGNVISVKSEKYNPHSNRTEFICVELESISQGTGELLETFNSAEQKSIKNKFSPGTVLFGKLRPYLRKFYLPYFEGVCSSEIWVMRSNKIEPAFLYSFIQTPYFISLANQSSGSKMPRADWGLIETSKIAYPPNSAERVKIGKFLKLIDERIATQNKIIAHLESLIKGLTNQLLIPNSNWQPTTIGQVLTINPGKDYKHLKEGNIPVYGTGGYMLSVNDYLYDGESVCIGRKGTINKPIFLTGKFWTIDTLFYTSNFNSLLPRFGYYLFKTIDWLKYNEASGVPSLSKVSIEKIHISLPSLAIQNSICRLLDSIYDKLALEESVLNNHQTQKAFILQQMFI | not soluble
2 | MTELRVYLLIEALQPQFAACLSSPTRARGYPAFAGQSSLIIEVSPALAIHRVTDLALKSAPAMEPGILYTERQFGLLELHADSLEKLNAAGQAILDGMGAKPEDQLKPQILYHDIIENLSDQHAIILNRSREASILVPGVALLIYEMAPALFACVAANEAERAVPRAVINDVQMMGATGRVFMSGSLAEMRLARETITAKLESIPGRQ | not soluble
3 | MGSDKIHHHHHHMNELVSIITPCYNSAATIRETIRSVIAQSYVNWELLIIDDCSNDDSVKIIMEFMDTDSRIYYLKTEHPSGGPTLPRNVGIQAAKGRFIAFLDSDDIWLPNKLSTQLPLFINDNVAIVYSDYEKISEEGNRTGRIVKSDPYHHYKSLLCGNELGCLTVVYDTQKIGKRYFKFIGHEDYNLWLDILKEGFIAINTNICLALYRIRKGSVSSNKLRVIKWIWHIYRVEQKKTIWLSLYYSLSDLNKSLFKYLK | not soluble
4 | MGSDKIHHHHHHVDDRPGTTGIRRTNPVMTDPKHRTEAPFDEQIIREYLIDNPDFFGRYPELLLAMRMSHTERGTVSLLERRQEMYRNRVAQLEEEITALMTQARRNEKIFRFNNDLQFKLLASAALGDVRQILSQALMSEFGFTHVRLITVHDVDSELSAIWSNRLARGHYFGRLTASESRRLFGSEVGSVALTRLSEHCGQVVFAIASQDPAHFHPEMDNLLLDQLRRILDHLLPRL | not soluble
5 | MDSNLMSSVSTSAILGGENFADLFAESLKSQDMKSGEVISAEVVRVDHNFVVVNAGLKSEALIPLEEFLNDQGELEVQPGDFVSVAIDSLENGYGDTILSRDRAKRLSAWLQLEQALENGELVTGTITGKVKGGLTVMTNGIRAFLPGSLVDLRPVKDTTPYEGKTLEFKVIKLDRKRNNVVLSRRQVLEASMGEERQKLLETLHEGAVVKGVVKNITDYGAFVDLGGIDGLLHITDMAWRRVRHPSEVLQVGQEVEAKVLKFDQEKSRVSLGVKQLGEDPWVGLARRYPQGTRLFGKVTNLTDYGAFVEVEAGIEGLVHVSEMDWTNKNVDPRKVVTLGEEVEVMVLEIDEDRRRISLGMKQCRQNPWEEFATNFKRGDKVRGAIKSITDFGVFVGLPGGIDGLVHLSDLSWTESGEEAVRNFKKGDELEAVVLGIDTEKERISLGIKQLEGDPFNNFVATHDKGAVVPGTIKSVEPKGAVITLSVDVEGYLRASEISSGRVEDATTVLKAGENIEAMIVNIDRKARSIQLSIKARDNAETAETIQRMSEASASSGTTNLGALLKAKLDQQRNDGLEHHHHHH | not soluble
6 | GFNPIIGTGISYKLSKKWSLAAEAFYSRRKVTYTSEVKDQNYIDRNTIIINNNPVTFEVSTTFTGTTKGEFDIHYLEFPLLAQYAIGNNWQIHAGMYYSWAFSKTNKGTATGIIGRTDISNPNTVTDKEYNYSKEVNSRYYGFVAGAQYQLSPAVALDLRATYSCKSLYKEDWEGVPYTLKDLYVQFTVKYFFIRAKD | not soluble
7 | MKKLIIATVLASISLSASAAETIRFAAEATYPPFEFIDANNKMQGFDIDLANALCKEMQADCTFTNQAFDSLIPSLKFKRFDAVISGMDITPERQKQVAFTQPYYDNSALFIAQKDKVADLAALKGKRVGMQNGSTHQKYLMEKHPEITAVPYDSYQNAILDLKNGRLDAVFGDTAVVNEWLKQNDQLAAVGDKVTDADYFGTGLGIAVRQSNTELQGKLDAALTKVKADGTYQTIYKKWFQQ | not soluble
8 | MKQILCTLDYELYGNGTGDVFEHIIKPTEELLAIARRHGIKYTIFFEVVEFWYLKREWERGNKMGYTEDPISAMEQQLREAYLQGHDVQLHLHPQWIGAVHQDGQWRLDLSNWCLGRYQGKGEYSLLSLLKRGKETIEEIIRPVDPHYSCIALRAGGYNAQPSEEIVRAMRQVGLKVDSSIYPGGFETGALSNYDYSSVAPDLGHWYVEDRLEYSAHGATDILELPIVAFPIRRLQKYLSLDRIKALFQNRKSAADTYSAKTANKGGIWGKISYFVELEWQTWDFCLFSKNLHRRFLKRVESQRGRKEFVLVGHPKSFVSGESFNYLIGQLKSSYQFLSMTELYDQRLKIGTKKGVKDTHKPETPAPEGPSPEGPEAGL | not soluble
9 | MTESVFAVVVTHRRPDELAKSLDVLTAQTRLPDHLIVVDNDGCGDSPVRELVAGQPIATTYLGSRRNLGGAGGFALGMLHALAQGADWVWLADDDGHAQDARVLATLLACAEKYSLAEVSPMVCNIDDPTRLAFPLRRGLVWRRRASELRTEAGQELLPGIASLFNGALFRASTLAAIGVPDLRLFIRGDEVEMHRRLIRSGLPFGTCLDAAYLHPCGSDEFKPILCGRMHAQYPDDPGKRFFTYRNRGYVLSQPGLRKLLAQEWLRFGWFFLVTRRDPKGLWEWIRLRRLGRREKFGKPGGSA | soluble
10 | MGSDKIHHHHHHTYDYFEDETNYQVFVPEVLNKTVSDCRVLVYNDAGTLVGARYATSPWDKDPRMEAGLFSFRLTPGEYKVYCYTNTDSLTFVDGQHLDASAFILKSSSTGPNRYVQPSDILFQKFVPAIVHPGILQTDTAALERYTGRITVRFKKFPGDVSHIKKVQLLAEGAPVMQYLKNDTLTGRLTPEDKMFHFGTLPVQEKADVLEVDHRFIPSVENEPMRLNYTFLDENGAVVNHLPVEVTERETGLPLRLLHGKRIIIEIESYTVIKISVVGWNEDIESGDTDME | not soluble
11 | MGSDKIHHHHHHMTASTVRSPIKVQMRQTGYAARQQRAARMGGMLYQLHELTRNLLAPWVHQAQANAKMFSDPDSLWASLPGAERMAASNELFHRLGKEYEKPAWALDDVEVDGHSLPIIEREVLSKPFCRLLRFKRFSDHVELIGTMKQQPAVLVVAPLSGHHATLLRDTVRTLLRNHKVYVTDWVDARMVPLEAGAFRLEDYIAYIQEFIRHIGAERLHVVSVCQPTVPVLAAVSLMASNDEPTPRSLVMMGGPIDARRSPTQVNNLATENGIEWFQNNLIHTVPFPYPGHGRQVYPGFLQHAGFLSMNPNRHVMSHWDFYTDLVKGDLQDAQAHRQFYDEYNAVLDMPSEYYLDTIRVVFQEFLLPQGKWKVDGQLVMPSAIRNTALLSIEGELDDIAGLGQTEAVHDLCTGIDAAHRRHLVVEGAGHYGIFSGRRWREVVYPQVREFIARYDADPVGSRDPATVTPIRKRGKRA | not soluble
12 | MKKHVMLVKPFSLEDEKDSENTPPNLIQRILSLFKNVRPGSDLTNFQLPPQMNLARSQLQCYGEIVYSFDGHDLLGECSRRDKPIERMKAMVTWYISTLRPLIFGLAPYNPVIGETHHVSNGHINVLAEQISHHPPVSALHATHEKENVDVLLCQYFTPKFRGAYVDVEVKGKRVVKLLNHKETYEMNQPKLLMTFLPAMGAHWAGKIVIKCPETGLGAELQLLSDSFLSRFTGNNKRAIKGKIFESSSRKQLYEISGHWDRTVTAKNTKTGQLEVIYKASENIAKLKTPIVENLQEVSESESAVVWGEVSEGIVTNNWEKAREAKRDVEEKQRESLRKRKASGQSWIPKHFSVARTGKDWDCVPLQPTVPRAPIVVPL | soluble
